Patent US7732162

What was measured:
[1] = system: T1, H-Gln-Ala-Ala-Ala-Ala-NH2
T1 sequence: QAAAA

H-Gln-Ala-Ala-NH2 = system: T2, H-Gln-Ala-Ala-NH2
T2 sequence: QAA

[2] = system: T3, H-Gln-Ala-Ala-Ser-Ala-Ala-NH2
T3 sequence: QAASAA

H-Gln-Ala-NH2 = system: T4, H-Gln-Ala-NH2
T4 sequence: QA

H-Gln-Ala-OH = system: T5, H-Gln-Ala-OH
T5 sequence: QA

H-Gln-Arg-Gly-Ile-NH2 = system: T6, H-Gln-Arg-Gly-Ile-NH2
T6 sequence: QRGI

H-Gln-Arg-Tyr-Phe-NH2 = system: T7, H-Gln-Arg-Tyr-Phe-NH2
T7 sequence: QRYF

H-Gln-Asn-Gly-Ile-NH2 = system: T8, H-Gln-Asn-Gly-Ile-NH2
T8 sequence: QNGI

H-Gln-Gln-OH = system: T9, H-Gln-Gln-OH
T9 sequence: QQ

H-Gln-Gln-Tyr-Phe-NH2 = system: T10, H-Gln-Gln-Tyr-Phe-NH2
T10 sequence: QQYF

H-Gln-Glu-Ala-Ala-NH2 = system: T11, H-Gln-Glu-Ala-Ala-NH2
T11 sequence: QEAA

H-Gln-Glu-Ala-Phe-NH2 = system: T12, H-Gln-Glu-Ala-Phe-NH2
T12 sequence: QEAF

H-Gln-Glu-Asp-Leu-NH2 = system: T13, H-Gln-Glu-Asp-Leu-NH2
T13 sequence: QEDL

H-Gln-Glu-OH = system: T14, H-Gln-Glu-OH
T14 sequence: QE

H-Gln-Glu-Tyr-Ala-NH2 = system: T15, H-Gln-Glu-Tyr-Ala-NH2
T15 sequence: QEYA

H-Gln-Glu-Tyr-NH2 = system: T16, H-Gln-Glu-Tyr-NH2
T16 sequence: QEY

H-Gln-Glu-Tyr-Phe-NH2 = system: T17, H-Gln-Glu-Tyr-Phe-NH2
T17 sequence: QEYF

H-Gln-Gly-OH = system: T18, H-Gln-Gly-OH
T18 sequence: QG

H-Gln-Gly-Pro-OH = system: T19, H-Gln-Gly-Pro-OH
T19 sequence: QGP

H-Gln-His-Tyr-Phe-NH2 = system: T20, H-Gln-His-Tyr-Phe-NH2
T20 sequence: QHYF

H-Gln-Lys-Arg-Leu-NH2 = system: T21, H-Gln-Lys-Arg-Leu-NH2
T21 sequence: QKRL

H-Gln-Phe-Ala-NH2 = system: T22, H-Gln-Phe-Ala-NH2
T22 sequence: QFA

H-Gln-Pro-Tyr-Phe-NH2 = system: T23, H-Gln-Pro-Tyr-Phe-NH2
T23 sequence: QPYF

H-Gln-Ser-Tyr-Phe-NH2 = system: T24, H-Gln-Ser-Tyr-Phe-NH2
T24 sequence: QSYF

H-Gln-Trp-Ala-NH2 = system: T25, H-Gln-Trp-Ala-NH2
T25 sequence: QWA

H-Gln-Tyr-Ala-OH = system: T26, H-Gln-Tyr-Ala-OH
T26 sequence: QYA

[3] = system: T27, H-Gln-cyclo(Nε-Lys-Arg-Pro-Ala-Gly-Phe)
T27 sequence: QKRPAGF

[4] = system: T28, H-βhomoGln-Phe-Lys-Arg-Leu-Ala-NH2
T28 sequence: QFKRLA

[Gln^1]-FPP = system: T29, [Gln^1]-FPP
T29 sequence: QEP

[Gln^1]-Gastrin = system: T30, [Gln^1]-Gastrin
T30 sequence: QGPWLEEEEEAYGWMDF

[Gln^1]-GnRH = system: T31, [Gln^1]-GnRH
T31 sequence: QHWSYGLRPG

[Gln^3]-glucagon(3-29) = [Gln^3]-glucagon(3-29) (UniProt P01275)
[5] = system: T32, [Gln^5]-substance P(5-11)
T32 sequence: QQFFGLM

Chain of [Gln^3]-glucagon(3-29) (P01275 whole entry, looked up, tested part not stated): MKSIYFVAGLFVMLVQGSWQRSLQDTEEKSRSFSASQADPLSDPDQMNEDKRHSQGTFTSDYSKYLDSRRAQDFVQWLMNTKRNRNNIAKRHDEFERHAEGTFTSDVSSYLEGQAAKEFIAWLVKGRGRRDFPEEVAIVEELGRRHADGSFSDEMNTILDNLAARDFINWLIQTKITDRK

For “QC from papaya latex (Carica papaya glutaminyl cyclase)”, the KM [1] was 197 µM, the KM (H-Gln-Ala-Ala-NH2) was 164 µM and the KM [2] was 216 µM. The KM (H-Gln-Ala-NH2) was 212 µM, the KM (H-Gln-Ala-OH) was 158 µM and the KM (0.05 M Tricine-NaOH, pH 8.0) (H-Gln-Ala-OH) was 0.137 mM. For the same substance, the KM (0.05 M Tricine-NaOH, pH 8.0, 0.5 M KCl) (H-Gln-Ala-OH) was 0.143 mM, the KM (H-Gln-Arg-Gly-Ile-NH2) was 123 µM and the KM (0.05 M Tricine-NaOH, pH 8.0) (H-Gln-Arg-Gly-Ile-NH2) was 0.106 mM. It also gave a KM (0.05 M Tricine-NaOH, pH 8.0, 0.5 M KCl) (H-Gln-Arg-Gly-Ile-NH2) of 0.065 mM, a KM (H-Gln-Arg-Tyr-Phe-NH2) of 124 µM and a KM (H-Gln-Asn-Gly-Ile-NH2) of 153 µM. For the same substance, the KM (H-Gln-Gln-OH) was 44 µM, the KM (H-Gln-Gln-Tyr-Phe-NH2) was 45 µM and the KM (H-Gln-Glu-Ala-Ala-NH2) was 102 µM. The KM (H-Gln-Glu-Ala-Phe-NH2) was 81 µM, the KM (H-Gln-Glu-Asp-Leu-NH2) was 107 µM and the KM (0.05 M Tricine-NaOH, pH 8.0) (H-Gln-Glu-Asp-Leu-NH2) was 0.109 mM. The KM (0.05 M Tricine-NaOH, pH 8.0, 0.5 M KCl) (H-Gln-Glu-Asp-Leu-NH2) was 0.094 mM, the KM (H-Gln-Glu-OH) was 106 µM and the KM (0.05 M Tricine-NaOH, pH 8.0) (H-Gln-Glu-OH) was 0.098 mM. It also gave a KM (0.05 M Tricine-NaOH, pH 8.0, 0.5 M KCl) (H-Gln-Glu-OH) of 0.094 mM, a KM (H-Gln-Glu-Tyr-Ala-NH2) of 113 µM and a KM (H-Gln-Glu-Tyr-NH2) of 103 µM. The KM (H-Gln-Glu-Tyr-Phe-NH2) was 100 µM, the KM (H-Gln-Gly-OH) was 641 µM and the KM (H-Gln-Gly-Pro-OH) was 333 µM. It also gave a KM (H-Gln-His-Tyr-Phe-NH2) of 92 µM, a KM (H-Gln-Lys-Arg-Leu-NH2) of 118 µM and a KM (0.05 M Tricine-NaOH, pH 8.0) (H-Gln-Lys-Arg-Leu-NH2) of 0.102 mM. It also gave a KM (0.05 M Tricine-NaOH, pH 8.0, 0.5 M KCl) (H-Gln-Lys-Arg-Leu-NH2) of 0.053 mM, a KM (H-Gln-Phe-Ala-NH2) of 111 µM and a KM (H-Gln-Pro-Tyr-Phe-NH2) of 149 µM. For the same substance, the KM (H-Gln-Ser-Tyr-Phe-NH2) was 135 µM, the KM (H-Gln-Trp-Ala-NH2) was 78 µM and the KM (0.05 M Tricine-NaOH, pH 8.0) (H-Gln-Trp-Ala-NH2) was 0.079 mM. For the same substance, the KM (0.05 M Tricine-NaOH, pH 8.0, 0.5 M KCl) (H-Gln-Trp-Ala-NH2) was 0.072 mM, the KM (H-Gln-Tyr-Ala-OH) was 63 µM and the KM [3] was “KM-values of 240±14 µM and 133±5 µM for human and papaya QC, respectively”. The KM [4] was “KM=3.1±0.3 mM”, the KM ([Gln^1]-FPP) was 232 µM and the KM ([Gln^1]-Gastrin) was 34 µM. For the same substance, the KM ([Gln^1]-GnRH) was 169 µM, the KM ([Gln^1]-Neurotensin) was 40 µM and the “substrate conversion (kcat/KM column)” value ([Gln^3]-glucagon(3-29)) was “*”. For the same substance, the “substrate conversion (kcat/KM column)” value [5] was “*”.
